Values joined by “and” are separate entries in the source; they are usually repeats but may differ in a detail not shown here. Equal values may be shown once. Residues, ends and D or L forms follow the SMILES beside them. *: point of attachment. X1 = CC1(C)C(/C=C/C=C/C=C/C=C2/N(CCCCCC(=O)NCCN3C(=O)CC(*)C3=O)c3ccc4ccccc4c3C2(C)C)=[N+](CCCCS(=O)(=O)[O-])c2ccc3ccccc3c21
What was measured:
[1] = Blood clearance of ICG-pHLIP after single tail vein injection; assay type: in vivo, mouse; conditions: for Concentration in blood, Mean ± St. D.: 5 animals; for Concentration in blood, Mean ± St. D. / Concentration in blood: 2.5 nmol tail vein; for Concentration in blood: individual animal, listed as ICG-Var3
Method: (§1) BALB/cAcNHsd mice ranging in age from 5 to 6 weeks obtained from Envigo RMS Inc were used in the study. Mouse mammary 4T1 cancer cells were subcutaneously implanted in the right flank (8×10^5 cells/0.1 mL/flank) of adult female mice. Triple negative 4T1 tumor model closely mimics stage IV of human breast cancer. When tumors reached 5-6 mm in diameter, single tail vein injections of 2.5 nmol (or 0.5 mg/kg) of ICG-pHLIP in sterile PBS with 5% DMSO or 5% Ethanol (volume of the injection was 100 μl) were performed. The whole body and ex vivo imaging was performed using a Stryker 1588 AIM clinical imaging system with L10 AIM Light Source, 1588 AIM Camera using a 10 mm or 5 mm scope.
(§2) Animals were euthanized at time points: 5 min, 1 hr, 2 hrs, 4 hrs, 6 hrs, 16 hrs, 26 hrs and 48 hrs. […] 100 μl of blood was collected immediately after euthanasia and mixed with 12.5 μl of citrate-dextrose anticoagulant solution (kept at 4° C.), and necropsy was performed. Tumor, muscles, skin, heart, lungs, liver, spleen, kidneys, brain, pancreas, bone, stomach, small and large intestines were collected, imaged immediately after collection, weighed, and fast frozen in liquid nitrogen.
Blood samples mixed with of anti-coagulant solution were placed in 384 well plates (MatTek, glass bottom) (15 μL per well) and imaged on an Odyssey IR scanner (Li-Cor Biosciences). […] The same amounts (15 μL) of blood samples were placed in 384 well plate and imaged together with all other blood samples. The digital images were processed using the Image J program to calculate mean fluorescence intensity. The calibration curve (known concentration of ICG-pHLIP in blood samples vs intensity) was constructed to calculate the amount of ICG-pHLIP in blood samples collected from the mice at different times after construct administration.

[2] = tested on: 4T1 tumor; assay: Ex vivo NIRF imaging of organs (biodistribution and kinetics of ICG-pHLIP); assay type: in vivo, mouse; conditions: for Fluorescence intensity, Bone / Fluorescence intensity, Brain / Fluorescence intensity, Heart / Fluorescence intensity, Kidneys / Fluorescence intensity, L. Intest. / Fluorescence intensity, Liver / Fluorescence intensity, Lungs / Fluorescence intensity, Muscle / Fluorescence intensity, Pancreas / Fluorescence intensity, S. Intest. / Fluorescence intensity, Skin / Fluorescence intensity, Spleen / Fluorescence intensity, Stomach / Fluorescence intensity, Tumor: mean ± St. D., 5 animals
Method: as §1, §2
The ex vivo imaging of organs was performed using a Stryker 1588 AIM clinical imaging system with L10 AIM Light Source, 1588 AIM Camera using a 10 mm scope. The lens was spaced 4.3 cm away from the surface of the organs within an enclosed (light protected) area. The NIRF imaging of each organ was performed at three different laser intensities set on a hexadecimal scale as 0B-22 (low), 12-5C (medium), and 20-3A (high). The digital images of organs were processed using program written in Python to determine the average level of intensity recorded in the green channel. Since organs were imaged in the dark on black mats, the background signal was determined by introducing an intensity threshold. All the pixels with intensity from the green channel above the set threshold were counted and the average green intensity per pixel was calculated. Thus, the mean intensity per organ (Table 17a) and averaged over organs from 5 animals (Table 17b) was calculated.

SMILES: CC(C)C[C@H](NC(=O)[C@H](Cc1ccc(O)cc1)NC(=O)[C@H](C)NC(=O)[C@H](CCCNC(=N)N)NC(=O)[C@H](Cc1c[nH]c2ccccc12)NC(=O)[C@@H]1CCCN1C(=O)[C@H](CC(N)=O)NC(=O)[C@H](CCC(N)=O)NC(=O)[C@H](CC(=O)O)NC(=O)[C@H](CC(=O)O)NC(=O)[C@H](CSC1CC(=O)N(CCNC(=O)CCCCCN2/C(=C/C=C/C=C/C=C/C3=[N+](CCCCS(=O)(=O)[O-])c4ccc5ccccc5c4C3(C)C)C(C)(C)c3c2ccc2ccccc32)C1=O)NC(=O)[C@H](C)N)C(=O)N[C@@H](CC(=O)O)C(=O)N[C@@H](CC(C)C)C(=O)N[C@@H](CC(C)C)C(=O)N[C@@H](Cc1ccccc1)C(=O)N1CCC[C@H]1C(=O)N[C@H](C(=O)N[C@@H](CC(=O)O)C(=O)N[C@H](C(=O)N[C@@H](CC(C)C)C(=O)N[C@@H](CC(C)C)C(=O)N[C@@H](CC(C)C)C(=O)N[C@@H](CC(=O)O)C(=O)N[C@@H](CC(C)C)C(=O)N[C@@H](CC(C)C)C(=O)N[C@@H](Cc1c[nH]c2ccccc12)C(=O)N[C@@H](C)C(=O)O)[C@@H](C)O)[C@@H](C)O (stereo partly shown) [ICG-pHLIP] (H-AC(X1)DDQNPWRAYLDLLFPTDTLLLDLLWA-OH)
- Concentration in blood, Mean ± St. D. ([1]; 5 min p.i.): 2.28 ± 0.23 nmol
- Concentration in blood ([1]; 5 min p.i.): 2.56 nmol and 2.09 nmol and 2.47 nmol and 2.02 nmol and 2.24 nmol
- Concentration in blood, Mean ± St. D. ([1]; 1 hour p.i.): 1.25 ± 0.35 nmol
- Concentration in blood ([1]; 1 hour p.i.): 1.40 nmol and 1.31 nmol and 1.73 nmol and 0.93 nmol and 0.88 nmol
- Concentration in blood, Mean ± St. D. ([1]; 2 hours p.i.): 0.59 ± 0.15 nmol
- Concentration in blood ([1]; 2 hours p.i.): 0.64 nmol and 0.40 nmol and 0.67 nmol and 0.47 nmol and 0.76 nmol
- Concentration in blood, Mean ± St. D. ([1]; 4 hours p.i.): 0.51 ± 0.07 nmol
- Concentration in blood ([1]; 4 hours p.i.): 0.41 nmol and 0.49 nmol and 0.57 nmol (2×) and 0.48 nmol
- Concentration in blood, Mean ± St. D. ([1]; 6 hours p.i.): 0.38 ± 0.06 nmol
- Concentration in blood ([1]; 6 hours p.i.): 0.41 nmol and 0.38 nmol and 0.32 nmol and 0.35 nmol and 0.46 nmol
- Concentration in blood, Mean ± St. D. ([1]; 16 hours p.i.): 0.12 ± 0.03 nmol
- Concentration in blood ([1]; 16 hours p.i.): 0.11 nmol and 0.13 nmol and 0.10 nmol and 0.16 nmol and 0.08 nmol
- Concentration in blood, Mean ± St. D. ([1]; 26 hours p.i.): 0.02 ± 0.01 nmol
- Concentration in blood ([1]; 26 hours p.i.): 0.02 nmol (3×) and 0.03 nmol (2×)
- half-life ([1]; female, BALB/cAcNHsd, mouse, whole blood, intravenous, 0.5 mg/kg, two-phase kinetics, read-out: characteristic half lifetime of blood clearance, first phase (converted)): 36 min
- characteristic time for complete clearance of the blood, second phase ([1]; two-phase kinetics): 7.5 h
- signal drop in first phase of blood clearance ([1]; two-phase kinetics): 66%
- time the fluorescence stays within the tumor ([2]; 4T1 tumor): up to 26 hours
- Fluorescence intensity, Bone ([2]; 5 min p.i.): 79.4 ± 8.1 a.u.
- Fluorescence intensity, Brain ([2]; 5 min p.i.): 167.0 ± 22.5 a.u.
- Fluorescence intensity, Heart ([2]; 5 min p.i.): 198.1 ± 15.9 a.u.
- Fluorescence intensity, Kidneys ([2]; 5 min p.i.): 171.7 ± 18.4 a.u.
- Fluorescence intensity, L. Intest. ([2]; 5 min p.i.): 37.1 ± 7.9 a.u.
- Fluorescence intensity, Liver ([2]; 5 min p.i.): 419.8 ± 37.9 a.u.
- Fluorescence intensity, Lungs ([2]; 5 min p.i.): 216.6 ± 2.7 a.u.
- Fluorescence intensity, Muscle ([2]; 5 min p.i.): 22.2 ± 20.3 a.u.
- Fluorescence intensity, Pancreas ([2]; 5 min p.i.): 153.2 ± 34.7 a.u.
- Fluorescence intensity, S. Intest. ([2]; 5 min p.i.): 42.4 ± 12.2 a.u.
- Fluorescence intensity, Skin ([2]; 5 min p.i.): 27.9 ± 16.4 a.u.
- Fluorescence intensity, Spleen ([2]; 5 min p.i.): 154.6 ± 9.0 a.u.
- Fluorescence intensity, Stomach ([2]; 5 min p.i.): 91.7 ± 13.4 a.u.
- Fluorescence intensity, Tumor ([2]; 5 min p.i.): 36.2 ± 6.0 a.u.
- Fluorescence intensity, Bone ([2]; 1 hour p.i.): 74.0 ± 13.1 a.u.
- Fluorescence intensity, Brain ([2]; 1 hour p.i.): 137.7 ± 8.9 a.u.
- Fluorescence intensity, Heart ([2]; 1 hour p.i.): 179.6 ± 16.4 a.u.
- Fluorescence intensity, Kidneys ([2]; 1 hour p.i.): 193.7 ± 10.6 a.u.
- Fluorescence intensity, L. Intest. ([2]; 1 hour p.i.): 28.4 ± 17.9 a.u.
- Fluorescence intensity, Liver ([2]; 1 hour p.i.): 533.0 ± 16.7 a.u.
- Fluorescence intensity, Lungs ([2]; 1 hour p.i.): 194.7 ± 6.2 a.u.
- Fluorescence intensity, Muscle ([2]; 1 hour p.i.): 8.2 ± 18.2 a.u.
- Fluorescence intensity, Pancreas ([2]; 1 hour p.i.): 132.7 ± 24.5 a.u.
- Fluorescence intensity, S. Intest. ([2]; 1 hour p.i.): 71.9 ± 16.9 a.u.
- Fluorescence intensity, Skin ([2]; 1 hour p.i.): 39.1 ± 9.0 a.u.
- Fluorescence intensity, Spleen ([2]; 1 hour p.i.): 157.8 ± 4.4 a.u.
- Fluorescence intensity, Stomach ([2]; 1 hour p.i.): 99.1 ± 23.0 a.u.
- Fluorescence intensity, Tumor ([2]; 1 hour p.i.): 100.5 ± 38.5 a.u.
- Fluorescence intensity, Bone ([2]; 2 hours p.i.): 57.5 ± 23.4 a.u.
- Fluorescence intensity, Brain ([2]; 2 hours p.i.): 82.2 ± 17.4 a.u.
- Fluorescence intensity, Heart ([2]; 2 hours p.i.): 167.6 ± 12.2 a.u.
- Fluorescence intensity, Kidneys ([2]; 2 hours p.i.): 156.0 ± 14.1 a.u.
- Fluorescence intensity, L. Intest. ([2]; 2 hours p.i.): 6.4 ± 14.4 a.u.
- Fluorescence intensity, Liver ([2]; 2 hours p.i.): 542.6 ± 26.8 a.u.
- Fluorescence intensity, Lungs ([2]; 2 hours p.i.): 177.0 ± 10.4 a.u.
- Fluorescence intensity, Muscle ([2]; 2 hours p.i.): 0.0 ± 0.0 a.u.
- Fluorescence intensity, Pancreas ([2]; 2 hours p.i.): 89.0 ± 32.0 a.u.
- Fluorescence intensity, S. Intest. ([2]; 2 hours p.i.): 47.1 ± 13.9 a.u.
- Fluorescence intensity, Skin ([2]; 2 hours p.i.): 32.0 ± 18.1 a.u.
- Fluorescence intensity, Spleen ([2]; 2 hours p.i.): 136.9 ± 7.7 a.u.

— patent US20180369425A1, “LINKED AND OTHER pH-TRIGGERED COMPOUNDS” (priority 2017, published 2018)
